Assay: In vitro release (dissolution) of Infliximab from packed silicone cup and of lyophilized powder
Format: physicochemical
Settings: release into 600 μl water with stirring at room temperature (23° C.); UV absorption at 280 nm
Description: A solid drug pellet (FIG. 4, 402.) was created by mixing 75% infliximab with 25% hydroxy propyl methyl cellulose (HPMC). This solid pellet was packed into a silicone cup (FIG. 1, 101.). The drug can only release from one end of the silicone and this end is subsequently coated with a controlled release polymer formulation of 5 μl of 10% polylactic acid (FIG. 1, 107.) to control its release. Dissolution studies were performed with lyophilized infliximab powder and infliximab packed extended release formulations. For each sample, release into 600 μl water was carried out with stirring at room temperature (23° C.). Aliquots were removed at timed intervals and analyzed with UV absorption spectroscopy at 280 nm using a Spectramax Plus384 96 well plate reader.

## Lyophilized infliximab powder: TNF-α inhibitor infliximab as unformulated lyophilized powder, comparator in dissolution study
  release upon addition to solvent: releases almost immediately
